One data set concerns the target T1, NPR-C (Homo sapiens, UniProt P17342).
T1 construct: expressed in transfected cells; host or cells: Hek293, lentiviral transduction, CMV promoter, puromycin selection
T1 sequence (P17342 27-541): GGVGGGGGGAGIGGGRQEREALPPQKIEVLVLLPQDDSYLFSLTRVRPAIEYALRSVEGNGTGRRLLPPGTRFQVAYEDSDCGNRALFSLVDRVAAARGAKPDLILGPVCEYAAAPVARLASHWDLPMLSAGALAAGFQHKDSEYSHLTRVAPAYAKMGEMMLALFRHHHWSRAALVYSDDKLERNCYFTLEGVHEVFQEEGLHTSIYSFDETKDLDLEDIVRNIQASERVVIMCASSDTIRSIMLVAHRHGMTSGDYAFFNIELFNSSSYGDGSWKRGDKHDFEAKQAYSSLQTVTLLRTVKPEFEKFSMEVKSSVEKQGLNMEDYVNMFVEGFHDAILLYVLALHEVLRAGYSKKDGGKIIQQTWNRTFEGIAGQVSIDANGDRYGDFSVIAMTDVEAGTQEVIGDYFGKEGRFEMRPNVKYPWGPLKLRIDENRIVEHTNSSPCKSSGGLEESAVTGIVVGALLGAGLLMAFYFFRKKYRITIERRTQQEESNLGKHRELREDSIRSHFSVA
In words: NPR-C affinity assay. The format is binding. Particulars: residual NPR-C affinity, NPR-C expressing Hek293 cells, competition with fluorescein-labelled CNP 27d.

A further data set has as its target T2, NPR-B receptor (Mus musculus, UniProt Q6VVW5).
T2 construct: These cells express endogenously the NPR-B receptor on the cell surface; endogenous in cells; host or cells: NIH-3T3 (murine embryo fibroblast)
T2 sequence (Q6VVW5 23-1047 limits assumed): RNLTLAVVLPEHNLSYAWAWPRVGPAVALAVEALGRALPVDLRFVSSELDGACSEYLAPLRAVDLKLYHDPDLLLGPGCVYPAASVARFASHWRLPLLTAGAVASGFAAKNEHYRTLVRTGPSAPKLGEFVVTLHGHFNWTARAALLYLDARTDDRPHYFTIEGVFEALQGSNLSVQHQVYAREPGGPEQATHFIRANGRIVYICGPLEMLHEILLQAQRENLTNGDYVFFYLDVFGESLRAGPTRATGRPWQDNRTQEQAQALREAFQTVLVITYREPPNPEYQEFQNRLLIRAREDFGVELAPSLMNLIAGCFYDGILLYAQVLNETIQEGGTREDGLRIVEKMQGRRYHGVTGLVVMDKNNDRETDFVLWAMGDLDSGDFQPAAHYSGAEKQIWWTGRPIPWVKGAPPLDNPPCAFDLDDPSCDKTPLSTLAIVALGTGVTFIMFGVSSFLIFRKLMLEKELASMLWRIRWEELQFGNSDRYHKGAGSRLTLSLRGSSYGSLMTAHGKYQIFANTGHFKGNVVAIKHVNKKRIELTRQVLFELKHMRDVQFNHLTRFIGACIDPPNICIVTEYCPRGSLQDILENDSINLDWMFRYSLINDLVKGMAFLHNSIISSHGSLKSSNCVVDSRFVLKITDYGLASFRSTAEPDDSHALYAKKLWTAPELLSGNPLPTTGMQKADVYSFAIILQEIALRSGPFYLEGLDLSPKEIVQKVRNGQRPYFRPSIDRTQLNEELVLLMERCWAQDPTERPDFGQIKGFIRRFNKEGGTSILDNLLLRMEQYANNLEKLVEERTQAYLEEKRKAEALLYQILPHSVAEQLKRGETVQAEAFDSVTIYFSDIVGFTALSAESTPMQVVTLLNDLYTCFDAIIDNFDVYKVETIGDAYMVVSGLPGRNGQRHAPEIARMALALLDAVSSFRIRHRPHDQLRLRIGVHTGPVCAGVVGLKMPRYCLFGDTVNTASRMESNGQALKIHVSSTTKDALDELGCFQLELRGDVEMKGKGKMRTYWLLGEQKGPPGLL
In words: Functional cGMP stimulation in NIH-3T3 cells with CNP variants. Particulars: residual NPR-B activity vs non-PEGylated CNP-38, cGMP. The data set is classed as cell-based, murine. As to the method:
As used herein “EC50” with regard to controlled-release CNP agonist and CNP agonist refers to the concentration of controlled-release CNP agonist and CNP agonist with which a half-maximum cGMP production of NPR-B is elicited. NPR-B activity in the form of its EC50 of the controlled-release CNP agonist, of the released CNP agonist and of CNP-22 is measured by cultivating NIH-3T3 (Murine Embryo Fibroblast cell line) cells which express NPR-B on their cell surface, incubating the cells with the controlled-release CNP agonist, the corresponding released CNP agonist or CNP-22, respectively, and determining the intracellular production of the second messenger cGMP with a standard cGMP assay. In particular the assay is performed as follows: • (1) murine NIH-3T3 cells expressing endogenous NPR-B are cultivated in DMEM F-12 medium with 5% FBS and 5 mM glutamine at 37° C. and 5% CO2; • (2) for each assay 50,000 cells are resuspended in Dulbecco's PBS with IBMX and incubated with either the controlled-release CNP agonist, the corresponding released CNP agonist or CNP-22; each in different concentrations; • (3) after incubating for 30 min at 37° C. and 5% CO2, the cells are lysed and cGMP levels are determined; and • (4) generating an EC50 value from the determined cGMP levels.
Functional activity of CNP variants were determined in a cell-based assay with NIH-3T3 cells (Murine Embryo Fibroblast cell line). These cells express endogenously the NPR-B receptor on the cell surface. Stimulation of the NPR-B receptor with CNP leads to intracellular production of the second messenger cGMP which is detected with a commercially available cGMP assay. NIH-3T3 cells were routinely cultured in DMEM F-12 medium with 5% FBS and 5 mM glutamine at 37° C. and 5% CO2. For each assay, 50,000 cells were resuspended in stimulation buffer (Dulbecco's PBS with IBMX) and incubated with the CNP variants in different concentrations. CNP (dilutions were made in PBS with 0.2% BSA). After incubation of 30 min at 37° C. and 5% CO2, the cells were lyzed and cGMP levels were determined with a commercially available cGMP TR-FRET assay (Cisbio, cGMP kit, Cat. No. 62GM2PEB). PEGylated CNP variants were always characterized in comparison with the non-PEGylated version in the same experiment batch. If possible, evaluation of the residual activity was done via the relative EC50-parameter of the resulting dose-response curve (restricted model with common slope).
11i was incubated under physiological conditions (1 mg CNP-38 eq/mL), as described in Example 20. After 7 d, released CNP-38 was isolated by RP-HPLC and analyzed for bioactivity as described in Example 21.

The conditions of data set [1]: 0.146 mg CNP-38 eq/kg. As to the method: Plasma total CNP-38 concentrations (conjugated and released CNP-38) were determined by quantification of the N-terminal signature peptide (sequence: […]) and C-terminal signature peptide (sequence: […]) after tryptic digestion.
LC-MS analysis was carried out by using an Agilent 1290 UPLC coupled to an Agilent 6550 iFunnel Q-TOF mass spectrometer via an ESI probe. Chromatography was performed on a Waters Acquity BEH300 C18 analytical column (50×2.1 mm I.D., 1.7 μm particle size) with pre-filter at a flow rate of 0.25 mL/min (T=25° C.). Water (UPLC grade) containing 0.2% formic acid (v/v) was used as mobile phase A and acetonitrile (UPLC grade) with 0.2% formic acid as mobile phase B. The gradient system comprised a short isocratic step at the initial parameters of 0.1% B for 3.0 min followed by a linear increase from 0.1% B to 16% B in 17 min. Mass analysis was performed in the single ion monitoring (SIM) mode, monitoring the ions m/z 482.75 [M+2H]^2+ (N-terminal) and m/z 824.36 [M+H]^1+ (C-terminal). As internal standard deuterated CNP-38 peptide was used.
Calibration standards of CNP-38 conjugate in blank plasma were prepared as follows: The thawed Li-heparin cynomolgous plasma was first homogenized, then centrifuged for 5 minutes. […] These solutions were used for the generation of a calibration curve.
For sample preparation, protein precipitation was carried out by addition of 300 μL of pre-cooled (0° C.) methanol to 100 μL of the plasma sample. 200 μL of the supernatant were transferred into a new well-plate and evaporated to dryness (under a gentle nitrogen stream at 35° C.). 100 μL of reconstitution solvent (Thermo digestion buffer, order number 60109-101, Thermo Fisher Scientific GmbH, Dreieich, Germany) were used to dissolve the residue. 20 μg of trypsin (order number V5111, Promega GmbH, Mannheim, Germany) were dissolved in 20 μL of 10 mM acetic acid. 2 μL of the trypsin solution were added to each cavity.
After 4 hours incubation at 37° C. (water bath), 5 μL of a 0.5 M TCEP solution were added to each cavity and incubated again for 5 min at 96° C. After the samples had cooled to room temperature, 3 μL acetonitrile were added. The eluates were transferred into vials. 10 μL were injected into the UPLC-MS system.
Male cynomolgus monkeys (2-4 years old, 3-5 kg) received either a single subcutaneous administration (n=3 animals) of compound 10f or a single subcutaneous (n=3 animals) administration of 11i at a dose of 0.146 mg CNP-38 eq/kg. Blood samples were collected up to 168 h post dose, and plasma was generated. Plasma levels of total CNP-38 content were analyzed as described in example 24. In order to analyze the plasma content of free CNP-38, the blood samples were acidified after withdrawal by adding 20 vol % of 0.5 M sodium citrate buffer pH 4 to stop further CNP-38 release from the conjugate. Free CNP-38 levels in plasma can e.g. be determined by ELISA using a CNP antibody that binds to the ring region of CNP, as described in the literature (U.S. Pat. No. 8,377,884 B2), or by LC-MS/MS.

Data set [2] can be described thus: Evaluation of cardiovascular effects in the conscious telemetered mouse (subcutaneous administration). The format is in vivo, Crl:CD1(ICR) mice. Particulars: for MAP: mean ± SD, n = 4. An excerpt: The purpose of this study was to evaluate the haemodynamic side effects of 11i at dose level equivalent to a CNP-38 dose level eliciting haemodynamic side effects (decrease in blood pressure) in the telemetered mouse.
Male Crl:CD1(ICR) mice (age range 8-13 weeks and body weight range 27.3-35.6 g at start of dosing) were surgically implanted with a TA11PA-C10 telemetry transmitter (Data Sciences International (DSI)) in the carotid artery. The body of the transmitter was placed subcutaneously in the lateral flank of the mouse. The mice were dosed subcutaneously in a latin square crossover design with at least 72 hours between dosing occasions. Mice were dosed with 1) vehicle (10 mM succinate, 46.0 g/L mannitol, pH 4.00), 2) CNP-38 (800 μg CNP-38/kg, 10 mM succinate, 46.0 g/L mannitol, pH 4.00) or 3) 11i (800 μg CNP-38 eq/kg, 10 mM succinate, 46.0 g/L mannitol, pH 4.00). At least four mice were included at each dose level. Blood pressure (systolic (SAP), diastolic (DAP) and mean (MAP) and heart rate (HR, derived from blood pressure), were recorded using a digital data capture system linked with a DSITM Ponemah data acquisition and analysis system. The capture system allowed recording of the cardiovascular parameters whilst the mice were in individual cages. On the day of each test session the animals were weighed and a predose recording was performed for at least 60 min prior to dosing. Each mouse was returned to the home cage and the cardiovascular parameters were recorded for approximately 48 hours postdose. Blood pressure and HR were reported at the following time points: −30, −20, −10, 5, 15 and 30 min postdose and 1, 2, 6, 12, 18, 24, 30, 36, 42 and 48 hours postdose. Each time point was presented as the average value of five minute's recording prior to the time point. The monitoring period was selected to cover exposure to the test items both prior to and after Tmax.

The source of these data is US12544428B2, “Controlled-release CNP agonists with reduced side-effects” (ASCENDIS PHARMA GROWTH DISORDERS A/S, priority 2016, dated 2026).

Consider “Permanent N-Terminal CNP-38 PEG 5 kDa Conjugate [Compound 15e]”, for which the “IC50 of PEGylated CNP-38/IC50 CNP-38” value at NPR-C was determined as 0.53. Further, the “EC50 compound/EC50 CNP-38” value on NPR-B receptor was more than 5.

“Reversible Lys26 CNP-38 PEG4×10 kDa Conjugate [Compound 11i]”: the dose site reactions entry in data set [1] (single sc) was “No dose site reactions were observed”. The terminal half life in data set [1] (single sc, C-terminal and N-terminal peptide) was in the range of 72 to 96 h. Besides, in data set [1] (single sc, C-terminal peptide), the “total CNP-38 plasma level after 168 h” value is “ca. 30 % of cmax”. Moreover, the “total CNP-38 tmax” value in data set [1] (single subcutaneous administration) is listed as 24 h. Further, the HR result in data set [2] (800 μg CNP-38 (eq)/kg sc) is “not impacted”. Moreover, in data set [2] (1 to 48 hours postdose, 800 μg CNP-38 (eq)/kg sc), the “MAP versus vehicle at the remaining ten time points” value is listed as “no difference in MAP”. In addition, the “change in MAP compared to predose” value in data set [2] (5, 15 and 30 min post dose, 800 μg CNP-38 (eq)/kg sc, CNP-38: 3 of 4 animals) is “same physiological increase in MAP”. Also, the MAP is recorded as 122.8 ± 5.9 mmHg in data set [2] (5 min post dose, 800 μg CNP-38 (eq)/kg sc); 121.5 ± 7.5 mmHg in data set [2] (15 min post dose, 800 μg CNP-38 (eq)/kg sc); 111.5 ± 13.7 mmHg in data set [2] (30 min post dose, 800 μg CNP-38 (eq)/kg sc); 106.4 ± 10.7 mmHg in data set [2] (predose, 800 μg CNP-38 (eq)/kg sc). Also, the “effect on blood pressure” value in data set [2] (subcutaneous, dosage equivalent to CNP-38 800 μg/kg) is reported as “did not decrease blood pressure”.
